Measured values published in PMC9301129.

What was measured:
Conditions in all cases: glycan lost; control: UNC93B1(WT)
[1] = TLR9 co-IP after CpG DNA, anti-MyD88 blot
[2] = confocal microscopy, colocalisation with CD63, KO BMDC
[3] = confocal microscopy, TLR9-GFP with CD63-cherry, KO BMDC
[4] = cycloheximide chase, anti-GFP blot, UNC93B1 KO iBMDM
[5] = blot of TLR9 in isolated phagosomes
[6] = cycloheximide chase, anti-myc blot, full-length and cleaved TLR9
[7] = streptavidin pull-down, anti-myc blot, KO iBMDM

B1: UNC93B1: N272Q (protein)
parent chain: MEVEPPLYPVAGAAGPQGDEDRHGVPDGPEAPLDELVGAYPNYNEEEEERRYYRRKRLGVVKNVLAASTGVTLTYGVYLGLLQMQLILHYDETYREVKYGNMGLPDIDSKMLMGINVTPIAALLYTPVLIRFFGTKWMMFLAVGIYALFVSTNYWERYYTLVPSAVALGMAIVPLWASMGNYITRMSQKYYEYSHYKEQDEQGPQQRPPRGSHAPYLLVFQAIFYSFFHLSFACAQLPMIYFLNNYLYDLNHTLINVQSCGTKSQGILNGFNKTVLRTLPRSKNLIVVESVLMAVAFLAMLMVLGLCGAAYRPTEEIDLRSVGWGNIFQLPFKHVRDFRLRHLVPFFIYSGFEVLFACTGFALGYGVCSMGLERLAYLLIAYSLGASASSVLGLLGLWLPRSVPLVAGAGLHLLLTLSLFFWAPAPRVLQHSWIFYFVAALWGVGSALNKTGLSTLLGILYEDKERQDFIFTIYHWWQAVAIFVVYLGSSLPMKAKLAVLLVTLVAAAASYLWMEQKLQQGLVPRQPRIPKPQHKVRGYRYLEEDNSDESDMEGEQGQGDCAEDEAPQAGPLGAEPAGPCRKPCPYEQALGGDGPEEQ
decreases: other: MyD88 recruitment to TLR9 [1]
no change: localisation_or_trafficking [2] | other: endosomal localisation of client TLR9 [3] | degradation_or_half_life [4] | other: TLR9 trafficking to phagosomes [5] | other: stability and processing of client TLR9 [6] | other: CpG DNA binding by client TLR9 [7]

B2: UNC93B1: N251Q/N272Q (protein)
parent chain: B1 parent chain
decreases: other: MyD88 recruitment to TLR9 [1]

B3: UNC93B1: N251Q (protein)
parent chain: B1 parent chain
no change: other: MyD88 recruitment to TLR9 [1] | localisation_or_trafficking [2] | other: endosomal localisation of client TLR9 [3] | degradation_or_half_life [4] | other: stability and processing of client TLR9 [6] | other: CpG DNA binding by client TLR9 [7]
